Several values for one entry are separate records, joined by “and”; a condition that tells them apart may be missing. Equal entries are not always repeated.
B1: 4D5 N30S.Y55E.H91A.N54E.D98T 1Fab-IgG TDB, linker not stated (bispecific antibody, V domains shown)
VH 1: not shown
VL 1: DIQMTQSPSSLSASVGDRVTITCRASQDVSTAVAWYQQKPGKAPKLLIYSASFLESGVPSRFSGSRSGTDFTLTISSLQPEDFATYYCQQAYTTPPTFGQGTKVEIK
VH 2: EVQLVQSGAEVKKPGASVKVSCKASGYTFTNYYIHWVRQAPGQGLEWIGWIYPGDGNTKYNEKFKGRATLTADTSTSTAYLELSSLRSEDTAVYYCARDSYSNYYFDYWGQGTLVTVSS
VL 2: DIVMTQSPDSLAVSLGERATINCKSSQSLLNSRTRKNYLAWYQQKPGQPPKLLIYWASTRESGVPDRFSGSGSGTDFTLTISSLQAEDVAVYYCTQSFILRTFGQGTKVEIK
B2: 4D5-H91A 1Fab-IgG TDB (40G5c anti-CD3 arm), linker not stated (bispecific antibody, V domains shown)
VH 1: not shown
VL 1: not shown
VH 2: B1 VH 2
VL 2: B1 VL 2
notes: The two VH stand in one heavy chain; also called 40G5c 4D5-H91A 1 Fab-IgG TDB

Tests used:
Human HER2 on cells = target: T1, Human HER2 on cells (human, UniProt P04626 23-1255); assay: cell binding of 1Fab-IgG TDB (luciferase read-out), apparent affinity, SKBR3 cells; SKBR3 cells (high HER2), direct cell binding
T1 construct: whole, on cells; SKBR3 is HER2-amplified, MCF7 expresses low levels of HER2; also called HER2 on SKBR3 cells; HER2 on MCF7 cells

[1] = target: T2, Cynomolgus monkey HER2 on transfected CHO cells (cynomolgus monkey, UniProt A0A2K5WUT7 1-1225); assay: cell binding of 1Fab-IgG TDB (luciferase read-out), apparent affinity, CHO-cynoHER2 High cells
T2 construct: whole, on cells; also called CHO-cynoHER2 High; cyno HER2-expressing cells

CD3 on human T cells = CD3 on human T cells (human, UniProt P07766 23-207); assay: cell-based or functional assay

Binder | Kd (Human HER2 on cells) [nM] | Kd [1] [nM] | IC50 of target cell killing, MCF7 cells (CD3 on human T cells) | IC50 of target cell killing, SKBR3 cells (CD3 on human T cells)
B1 | 5.08 |  |  | 
B2 |  | > 100 | > 1000 ng/mL and > 1000 pM | 4.2 ng/mL and 28 pM
